Results taken from patent US12281340B2, “Method of producing N-acyl-amino group-containing compound” (AJINOMOTO CO., INC., priority 2018, dated 2025).

Experiments:
[1] = Synthesis of N-caprinoylamino acid using purified acylamino acid synthetase, UPLC-MS detection; type: biochemical; design: key: +: Detected; −: Not detected; settings: +ATP
How it was run: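 Purified enzyme (50 μg) with 5 mM amino acid, 5 mM sodium caprate, 10 mM ATP, 10 mM MgCl2, 1 mM DTT in Tris-HCl pH 8.0, 24 h at 25° C; product detected by UPLC-MS (ESI-negative) as the N-caprinoyl amino acid mass signal.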

[2] = Analysis of ATP dependency of acylamino acid synthetase; type: biochemical; settings: Gly and sodium caprate
Experimental: 0.25 mL of a reaction solution containing 50 mM Tris-HCl, 5 mM amino acid, 5 mM sodium caprate, 10 mM or 0 mM ATP, 10 mM MgCl2, 1 mM DTT, 50 μg of the purified enzyme, pH 8.0 was incubated at 25° C. for 24 hours. As the amino acid, L-Asp and Gly were used in AtGH3-6 and CfHP, respectively. After completion of the reaction, 0.8 mL of the reaction stop solution (1% (v/v) phosphoric acid, 75% (v/v) methanol) was added to 0.2 mL of the reaction solution, and the mixture was filtrated through the filter followed by being subjected to the UPLC-MS analysis to quantify a produced N-caprinoylamino acid by detection at UV 210 nm. The condition for the UPLC-MS analysis is as described in Example 2. As a result of the analysis, 3.8 mM and […] of the N-caprinoylamino acids were detected in AtGH3-6 and CfHP, respectively in the presence of ATP. However, in the absence of ATP, no signal of the molecular weight corresponding to the N-caprinoylamino acid was detected when any of AtGH3-6 and CfHP was used.

[3] = Synthesis of N-capryloylamino acid using washed microbial cell suspension or microbial cell suspension expressing acylamino acid synthetase; type: cell-based, E coli BL21(DE3); settings: UV 210 nm
Experimental: BL21(DE3)/pET-28a-AtGH3-6, BL21(DE3)/pET-28a-OsGH3-8, BL21(DE3)/pET-28a-AtGH3-5, and BL21(DE3)/pET-28a were inoculated to 100 mL of LB medium containing 25 mg/L of kanamycin in a Sakaguchi flask, respectively and cultured with shaking at 37° C. When OD610 reached 0.6, 1 mM IPTG was added, and culturing with shaking was continued at 15° C. for 24 hours.
BL21(DE3)/pET-28a-CfHP was inoculated to 100 mL of LB medium containing 25 mg/L of kanamycin in a Sakaguchi flask, and cultured with shaking at 37° C. When OD610 reached 0.2, 1 mM IPTG was added, and culturing with shaking was continued at 15° C. for 24 hours.
After completion of the culture, microbial cells were collected from 5 mL of the resulting culture medium by centrifugation and washed with 20 mM Tris-HCl (pH 7.6) followed by being suspended in 1 mL of 20 mM Tris-HCl (pH 7.6) to use as a washed microbial cell suspension.
After completion of the culture, 15 mL of the resulting culture medium was concentrated to 3 mL by centrifugation to use as a microbial cell suspension.
0.3 mL of a reaction solution containing 33.3 mM Tris-HCl, 3.3 mM amino acid, 3.3 mM sodium caprylate, 6.7 mM or 0 mM ATP, 6.7 mM MgCl2, 0.7 mM DTT, 30 μg of the microbial cell suspension (cell free extract solution, washed microbial suspension, microbial suspension), pH 8.0 was incubated at 25° C. for 24 hours. As the amino acid, L-Asp was used in AtGH3-6, OsGH3-8, AtGH3-5, and Gly or L-Ala was used in CfHP. After completion of the reaction, 0.8 mL of the reaction stop solution (1% (v/v) phosphoric acid, 75% (v/v) methanol) was added, and the mixture was filtrated through the filter followed by being subjected to the UPLC-MS analysis to detect a signal of a molecular weight corresponding to the N-capryloylamino acid. The condition for the UPLC-MS analysis is as described in Example 2. As a result of the UPLC-MS analysis, the signal of the molecular weight corresponding to the appropriate N-capryloylamino acid was confirmed in the reaction solution using the microbial cell suspension and the like shown in Table 8 below.
As a result of quantifying the produced N-acylamino acid by detection at UV 210 nm, when Gly was used as the substrate in CfHP, 2.8 mM, 2.2 mM and 2.6 mM N-capryloylamino acids were detected in the washed microbial cell suspension, the microbial cell suspension (in the presence of ATP) and the microbial cell suspension (in the absence of ATP), respectively. When L-Ala was used as the substrate in CfHP, 2.4 mM, 0.9 mM and 1.0 mM N-capryloylamino acids were detected in the washed microbial cell suspension, the microbial cell suspension (in the presence of ATP) and the microbial cell suspension (in the absence of ATP), respectively.

B1: CfHP: hypothetical protein from Cystobacter fuscus (GH3 protein), His-tagged (protein, listed as Cystobacter fuscus)
chain: MQAAGRRDKQRFIEQTRHVARVNVDTLRAILQHNRDTDFGRRHGFASLRTVEDFQRALPVSTYEPFRPYMERIARGEQNVLTADRVEYLGITSGTTGQRKLLPVSRPHLENMRRTMMIGRAVVTEKVPAARRPSRGMILMNAVLRERSEGGLLTGALTAISTHSMGRAASFAFTSPPEAFRLRKHADALYLHLLFGLRERELGTLMAPFASGLLDMVHLLERRGADLVDDIARGVLRPELDLEPEQRRLLQSRLLPDPERAREVSQALEQGPHGLLRRLWPRLAYVSSITGASFSLYTRQLTPYLEGVPLSAASYVSTEGILGVPLELEQAVYCLMVGMAFFEFIPERELDAESPTTLLPEQLVEGEAYEVVLTTQAGLYRYRLGDVVRIVGRYHEAPLMEFLYRRGALLNLMGEKTSEHAARLALEQALATEGLLPADYSVVEETETLPGRYALFVELQEGARPQGAPEQLSRALEEALCRTNPFYEVIRRSERLGAAQLHRVEPGTFQALRDVLVQRGASPTQVKVPRVVRDAELQGLLRQRRVTG
modifications: His-tag
notes: hypothetical protein from Cystobacter fuscus (GH3 protein), His-tagged
2.8 mM: N-capryloylamino acid detected ([3]; Gly as substrate, washed microbial cell suspension)
+: signal of molecular weight corresponding to N-caprinoyl amino acid ([1]; substrates GABA and sodium caprate) | signal of molecular weight corresponding to N-caprinoyl amino acid ([1]; substrates Gly and sodium caprate) | signal of molecular weight corresponding to N-caprinoyl amino acid ([1]; substrates L-Ala and sodium caprate) | signal of molecular weight corresponding to N-caprinoyl amino acid ([1]; substrates L-Arg and sodium caprate) | signal of molecular weight corresponding to N-caprinoyl amino acid ([1]; substrates L-Asn and sodium caprate) | signal of molecular weight corresponding to N-caprinoyl amino acid ([1]; substrates L-Asp and sodium caprate) | signal of molecular weight corresponding to N-caprinoyl amino acid ([1]; substrates L-Cys and sodium caprate) | signal of molecular weight corresponding to N-caprinoyl amino acid ([1]; substrates L-Gln and sodium caprate) | signal of molecular weight corresponding to N-caprinoyl amino acid ([1]; substrates L-Glu and sodium caprate) | signal of molecular weight corresponding to N-caprinoyl amino acid ([1]; substrates L-His and sodium caprate) | signal of molecular weight corresponding to N-caprinoyl amino acid ([1]; substrates L-Ile and sodium caprate) | signal of molecular weight corresponding to N-caprinoyl amino acid ([1]; substrates L-Leu and sodium caprate) | signal of molecular weight corresponding to N-caprinoyl amino acid ([1]; substrates L-Lys and sodium caprate) | signal of molecular weight corresponding to N-caprinoyl amino acid ([1]; substrates L-Met and sodium caprate) | signal of molecular weight corresponding to N-caprinoyl amino acid ([1]; substrates L-Phe and sodium caprate) | signal of molecular weight corresponding to N-caprinoyl amino acid ([1]; substrates L-Pro and sodium caprate) | signal of molecular weight corresponding to N-caprinoyl amino acid ([1]; substrates L-Ser and sodium caprate) | signal of molecular weight corresponding to N-caprinoyl amino acid ([1]; substrates L-Thr and sodium caprate) | signal of molecular weight corresponding to N-caprinoyl amino acid ([1]; substrates L-Trp and sodium caprate) | signal of molecular weight corresponding to N-caprinoyl amino acid ([1]; substrates L-Tyr and sodium caprate) | signal of molecular weight corresponding to N-caprinoyl amino acid ([1]; substrates L-Val and sodium caprate) | signal of molecular weight corresponding to N-caprinoyl amino acid ([1]; substrates β-Ala and sodium caprate)
5.2 mM: N-caprinoylamino acid detected ([2]; in the presence of ATP (10 mM), UV 210 nm)
no signal: signal of molecular weight corresponding to N-caprinoyl amino acid ([2]; in the absence of ATP)
2.6 mM: N-capryloylamino acid detected ([3]; Gly as substrate, microbial cell suspension (in the absence of ATP))
2.2 mM: N-capryloylamino acid detected ([3]; Gly as substrate, microbial cell suspension (in the presence of ATP))
2.4 mM: N-capryloylamino acid detected ([3]; L-Ala as substrate, washed microbial cell suspension)
1.0 mM: N-capryloylamino acid detected ([3]; L-Ala as substrate, microbial cell suspension (in the absence of ATP))
0.9 mM: N-capryloylamino acid detected ([3]; L-Ala as substrate, microbial cell suspension (in the presence of ATP))
